Measured values reported in the supplement of paper PMC10567573.

B1: ZNF193 (parent)
chain: QKRYHCKECGKVFSQSAGLIQHQR

Variants of: B1
Assay: protein stability index of a GFP-peptide fusion (GPS, HEK-293T) (PSI 1-6); higher = more stable
Details: c terminus: a fixed tail appended
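Further: lentivirally expressed fusions sorted by FACS into six bins by GFP to DsRed ratio, PSI derived from sequencing read proportions per bin multiplied by bin number.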

| Variant | protein stability index |
| --- | --- |
| QKRYHCHECGKVFSQSAGLIQHQR [K7H] | 2.94 |
| QKRYHCWECGKVFSQSAGLIQHQR [K7W] | 2.49 |
| QKRYHCLECGKVFSQSAGLIQHQR [K7L] | 2.95 |
| QKRYHCIECGKVFSQSAGLIQHQR [K7I] | 2.69 |
| QKRYHCAECGKVFSQSAGLIQHQR [K7A] | 2.95 |
| QKRYHCNECGKVFSQSAGLIQHQR [K7N] | 3.23 |
| QKRYHCQECGKVFSQSAGLIQHQR [K7Q] | 3.15 |
| QKRYHCSECGKVFSQSAGLIQHQR [K7S] | 3.35 |
| QKRYHCRECGKVFSQSAGLIQHQR [K7R] | 2.66 |
| QKRYHCYECGKVFSQSAGLIQHQR [K7Y] | 3.1 |
| QKRYHCEECGKVFSQSAGLIQHQR [K7E] | 3.52 |
| QKRYHCMECGKVFSQSAGLIQHQR [K7M] | 2.6 |
| QKRYHCGECGKVFSQSAGLIQHQR [K7G] | 2.92 |
| QKRYHCTECGKVFSQSAGLIQHQR [K7T] | 2.74 |
| QKRYHCVECGKVFSQSAGLIQHQR [K7V] | 2.99 |
| QKRYHCPECGKVFSQSAGLIQHQR [K7P] | 3.33 |
| QKRYHCDECGKVFSQSAGLIQHQR [K7D] | 3.15 |
| QKRYHCCECGKVFSQSAGLIQHQR [K7C] | 2.65 |
| QKRYHCFECGKVFSQSAGLIQHQR [K7F] | 2.53 |
| QKRYSCKECGKVFSQSAGLIQHQR [H5S] | 2.94 |
| QKRYKCKECGKVFSQSAGLIQHQR [H5K] | 3.92 |
| QKRYVCKECGKVFSQSAGLIQHQR [H5V] | 3.95 |
| QKRYCCKECGKVFSQSAGLIQHQR [H5C] | 3.34 |
| QKRYNCKECGKVFSQSAGLIQHQR [H5N] | 2.77 |

| Variant | protein stability index |
| --- | --- |
| QKRYMCKECGKVFSQSAGLIQHQR [H5M] | 4.01 |
| QKRYLCKECGKVFSQSAGLIQHQR [H5L] | 3.75 |
| QKRYTCKECGKVFSQSAGLIQHQR [H5T] | 3.23 |
| QKRYDCKECGKVFSQSAGLIQHQR [H5D] | 2.37 |
| QKRYPCKECGKVFSQSAGLIQHQR [H5P] | 3.1 |
| QKRYECKECGKVFSQSAGLIQHQR [H5E] | 3.62 |
| QKRYRCKECGKVFSQSAGLIQHQR [H5R] | 3.9 |
| QKRYGCKECGKVFSQSAGLIQHQR [H5G] | 2.23 |
| QKRYACKECGKVFSQSAGLIQHQR [H5A] | 3.25 |
| QKRYQCKECGKVFSQSAGLIQHQR [H5Q] | 3.88 |
| QKRYICKECGKVFSQSAGLIQHQR [H5I] | 3.91 |
| QKRYWCKECGKVFSQSAGLIQHQR [H5W] | 2.98 |
| QKRYYCKECGKVFSQSAGLIQHQR [H5Y] | 3.29 |
| QKRYFCKECGKVFSQSAGLIQHQR [H5F] | 3.01 |
| QKRYHCKDCGKVFSQSAGLIQHQR [E8D] | 2.93 |
| QKRYHCKICGKVFSQSAGLIQHQR [E8I] | 2.98 |
| QKRYHCKCCGKVFSQSAGLIQHQR [E8C] | 4.26 |
| QKRYHCKKCGKVFSQSAGLIQHQR [E8K] | 3.5 |
| QKRYHCKHCGKVFSQSAGLIQHQR [E8H] | 3.81 |
| QKRYHCKACGKVFSQSAGLIQHQR [E8A] | 2.75 |
| QKRYHCKGCGKVFSQSAGLIQHQR [E8G] | 2.66 |
| QKRYHCKFCGKVFSQSAGLIQHQR [E8F] | 2.56 |
| QKMYHCKECGKVFSQSAGLIQHQR [R3M] | 3.23 |
| QKSYHCKECGKVFSQSAGLIQHQR [R3S] | 3.12 |

| Variant | protein stability index |
| --- | --- |
| QKTYHCKECGKVFSQSAGLIQHQR [R3T] | 3.59 |
| QKQYHCKECGKVFSQSAGLIQHQR [R3Q] | 3.33 |
| QKVYHCKECGKVFSQSAGLIQHQR [R3V] | 3.2 |
| QKPYHCKECGKVFSQSAGLIQHQR [R3P] | 2.98 |
| QKYYHCKECGKVFSQSAGLIQHQR [R3Y] | 3.52 |
| QKNYHCKECGKVFSQSAGLIQHQR [R3N] | 2.87 |
| QKLYHCKECGKVFSQSAGLIQHQR [R3L] | 3.58 |
| QKWYHCKECGKVFSQSAGLIQHQR [R3W] | 3.52 |
| QKRKHCKECGKVFSQSAGLIQHQR [Y4K] | 2.65 |
| QKREHCKECGKVFSQSAGLIQHQR [Y4E] | 2.15 |
| QKRWHCKECGKVFSQSAGLIQHQR [Y4W] | 2.86 |
| QKRRHCKECGKVFSQSAGLIQHQR [Y4R] | 1.98 |
| QKRDHCKECGKVFSQSAGLIQHQR [Y4D] | 2.48 |
| QKRLHCKECGKVFSQSAGLIQHQR [Y4L] | 2.4 |
| QKRAHCKECGKVFSQSAGLIQHQR [Y4A] | 1.99 |
| QKRMHCKECGKVFSQSAGLIQHQR [Y4M] | 2.17 |
| QKRGHCKECGKVFSQSAGLIQHQR [Y4G] | 2.14 |
| QKRSHCKECGKVFSQSAGLIQHQR [Y4S] | 2.11 |
| QKRVHCKECGKVFSQSAGLIQHQR [Y4V] | 2.25 |
| QKRQHCKECGKVFSQSAGLIQHQR [Y4Q] | 2.42 |
| QKRFHCKECGKVFSQSAGLIQHQR [Y4F] | 2.72 |
| QKRNHCKECGKVFSQSAGLIQHQR [Y4N] | 2.39 |
| QKRIHCKECGKVFSQSAGLIQHQR [Y4I] | 2.4 |
| QKRHHCKECGKVFSQSAGLIQHQR [Y4H] | 2.47 |

| Variant | protein stability index |
| --- | --- |
| QKRCHCKECGKVFSQSAGLIQHQR [Y4C] | 2.41 |
| QKRTHCKECGKVFSQSAGLIQHQR [Y4T] | 1.97 |
| QKRPHCKECGKVFSQSAGLIQHQR [Y4P] | 2.47 |
| QKRYHHKECGKVFSQSAGLIQHQR [C6H] | 2.24 |
| QKRYHLKECGKVFSQSAGLIQHQR [C6L] | 2.31 |
| QKRYHKKECGKVFSQSAGLIQHQR [C6K] | 2.69 |
| QKRYHNKECGKVFSQSAGLIQHQR [C6N] | 2.74 |
| QKRYHQKECGKVFSQSAGLIQHQR [C6Q] | 2.28 |
| QKRYHVKECGKVFSQSAGLIQHQR [C6V] | 2.8 |
| QKRYHPKECGKVFSQSAGLIQHQR [C6P] | 2.18 |
| QKRYHGKECGKVFSQSAGLIQHQR [C6G] | 2.62 |
| QKRYHSKECGKVFSQSAGLIQHQR [C6S] | 2.88 |
| QKRYHFKECGKVFSQSAGLIQHQR [C6F] | 2.08 |
| QKRYHRKECGKVFSQSAGLIQHQR [C6R] | 2.6 |
| QKRYHWKECGKVFSQSAGLIQHQR [C6W] | 1.96 |
| QKRYHMKECGKVFSQSAGLIQHQR [C6M] | 2.75 |
| QKRYHEKECGKVFSQSAGLIQHQR [C6E] | 3.74 |
| QKRYHIKECGKVFSQSAGLIQHQR [C6I] | 2.12 |
| QKRYHAKECGKVFSQSAGLIQHQR [C6A] | 2.63 |
| QKRYHYKECGKVFSQSAGLIQHQR [C6Y] | 1.73 |
| QKRYHDKECGKVFSQSAGLIQHQR [C6D] | 3.05 |
| QKRYHTKECGKVFSQSAGLIQHQR [C6T] | 2.83 |
